In one assay the target is T1, FXIIa (Factor XIIa) (human, UniProt P00748 373-615).
T1 chain: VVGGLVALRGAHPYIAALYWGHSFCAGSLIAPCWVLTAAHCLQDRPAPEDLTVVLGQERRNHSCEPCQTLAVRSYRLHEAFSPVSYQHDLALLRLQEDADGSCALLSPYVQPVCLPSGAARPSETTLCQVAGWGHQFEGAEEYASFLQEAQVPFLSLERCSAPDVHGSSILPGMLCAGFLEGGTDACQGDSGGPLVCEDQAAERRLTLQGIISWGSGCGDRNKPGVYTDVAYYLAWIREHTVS

Assay [1] concerns the target human Kallikrein-related peptidase 5 (hKLK5) (human, UniProt Q9Y337 67-293). Description: enzyme inhibition.
The next assay has as its target trypsin (human). Description: enzyme inhibition.
Another assay concerns the target PK. In words: enzyme inhibition.
In another assay the target is tPA. In words: enzyme inhibition.
The target in another assay is plasmin. Description: enzyme inhibition.
The target of another assay is thrombin. In words: enzyme inhibition.
A further assay has as its target uPA. Description: enzyme inhibition.
Assay [2] deals with human serum albumin (HSA) (human, UniProt P02768 25-609). In words: fluorescence polarization; human serum dilution. (In general: In fluorescence polarisation assays a small probe gives low polarisation when free and higher when bound to something large.)
For assay [3], the target named is T2, mouse serum albumin (MSA) (mouse, UniProt P07724 25-608). Description: fluorescence polarization.
Assay [4] deals with T2, mouse serum albumin (MSA).

Like-named read-outs stand apart in the source and are kept apart here. Positions of bridges follow the written chain, without caps; N, C: chain ends. Non-standard residues stand in square brackets, D forms with d. Primed or numbered codes have the meaning given here. Chains are numbered I, II in the order given. No end group written: not given here. *: point of attachment. Palmitoyl = CCCCCCCCCCCCCCCC(=O)*; PEG2″ = not defined here

T2 sequence (P07724 25-608): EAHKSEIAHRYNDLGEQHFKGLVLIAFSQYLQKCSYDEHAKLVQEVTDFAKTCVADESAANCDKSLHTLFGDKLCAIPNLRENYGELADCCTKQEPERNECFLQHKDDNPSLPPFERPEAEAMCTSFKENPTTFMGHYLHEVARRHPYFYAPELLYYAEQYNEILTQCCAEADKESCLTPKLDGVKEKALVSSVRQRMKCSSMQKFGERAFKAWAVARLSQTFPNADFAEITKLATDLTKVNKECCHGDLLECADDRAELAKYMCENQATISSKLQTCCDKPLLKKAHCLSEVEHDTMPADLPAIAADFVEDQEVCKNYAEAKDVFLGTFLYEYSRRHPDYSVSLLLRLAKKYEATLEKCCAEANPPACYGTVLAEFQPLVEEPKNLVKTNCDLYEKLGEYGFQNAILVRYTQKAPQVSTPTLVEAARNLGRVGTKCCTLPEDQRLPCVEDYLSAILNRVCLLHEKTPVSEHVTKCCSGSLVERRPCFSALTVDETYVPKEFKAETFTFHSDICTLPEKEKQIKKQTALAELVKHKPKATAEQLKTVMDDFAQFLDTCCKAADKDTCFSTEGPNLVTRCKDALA
human Kallikrein-related peptidase 5 (hKLK5), sequence (Q9Y337 67-293): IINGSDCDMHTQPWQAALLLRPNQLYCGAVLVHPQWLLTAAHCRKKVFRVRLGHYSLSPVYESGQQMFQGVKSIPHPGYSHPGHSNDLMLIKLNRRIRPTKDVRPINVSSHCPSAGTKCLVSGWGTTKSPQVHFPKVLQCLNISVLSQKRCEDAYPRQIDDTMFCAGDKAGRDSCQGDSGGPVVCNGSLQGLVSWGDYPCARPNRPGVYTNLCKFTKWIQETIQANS

B1: peptide 035 (lead KLK5 inhibitor) (peptide)
peptide: GCTRQYPC
modifications: linker 2-8 via 1,3‑dibromoacetone
Usually Ki stands for the dissociation constant of the complex between target and ligand, obtained from inhibition or displacement. A high value points to weaker binding. On to B1, for which the Ki with FXIIa (Factor XIIa) amounted to 43 µM; in assay [1], 10 nM; with trypsin, 60 µM.

B2: peptide 035 (peptide)
peptide: GCTRQYPC
modifications: linker 2-8 via 1,3‑dibromoacetone
Regarding B2, the Ki with PK, with tPA, with plasmin, in the assay with thrombin and in the assay with uPA was over 100 µM each time.

B3: N-terminal albumin tag conjugate of KLK7 inhibitor 096 (peptide)
peptide 1: EYEK(Palmitoyl)EYE[PEG2″]
peptide 2: PCLYLARCS
modifications: bridge II:2-II:8; not fully specified (N-terminus, bridges); also: tag C-terminus joined through PEG2 to inhibitor N-terminus (one linear molecule)
One may read the Kd as the concentration at which binding is half-saturated. Low values mean tighter binding, high ones weaker binding. Molecule B3 registered a Kd in [2] of 168 nM.

B4: KLK5 inhibitor 035-tag (C-terminal albumin tag conjugate of 035) (peptide)
peptide 1: GCTRQYPCGKG
peptide 2: EYEK(Palmitoyl)EYE
modifications: bridge I:2-I:8; not fully specified (N-terminus, C-terminus, bridges); also: albumin tag (chain 2) joined via PEG2 to side chain of Lys10 of chain 1, tag end used not given here, N-terminal fluorescein via PEG2, chain not given here
Consider B4, for which, in [3], the Kd was 7 µM.

B5: SSSKSSS-tag (peptide)
peptide: SSSKSSS
modifications: not fully specified (residue 4, N-terminus); also: fluorescein as in the albumin tag
In the case of B5, the Kd in [3] was 10.1 µM.

B6: albumin tag with fluorescein at the C-terminus (tag-F) (peptide)
peptide: EYEK(Palmitoyl)EYE-fluorescein
As to B6, in assay [4], binding was put at a Kd of 7.9 µM.

B7: N-terminal albumin tag conjugate of KLK5 inhibitor 035 (peptide)
peptide 1: EYEK(Palmitoyl)EYE[PEG2″]
peptide 2: GCTRQYPC
modifications: bridge II:2-II:8; not fully specified (N-terminus, bridges); also: tag C-terminus joined through PEG2 to inhibitor N-terminus (one linear molecule)
B7 yielded a Kd in assay [2] of 118 nM.

Source of the values: patent publication US20220267379A1 (published 2022).
